Columns and labels:
[1] = biological target: haemagglutinin (HA) of human influenza A type virus strain A/PR/8/34 (H1N1 subtype) (human influenza A type virus, H1N1 subtype, strain A/PR/8/34) (UniProt P03452)
[2] = biological target: haemagglutinin (HA) of human influenza A type virus strain A/Okuda/57 (H2N2 subtype) (human influenza A type virus, H2N2 subtype, strain A/Okuda/57)
[3] = biological target: haemagglutinin (HA) of human influenza A type virus strain A2/Aichi/2/68 (H3N2 subtype) (human influenza A type virus, H3N2 subtype, strain A2/Aichi/2/68) (UniProt P03437)
[4] = biological target: haemagglutinin (HA) of human influenza A type virus strain A/Kumamoto/1/65 (H2N2 subtype) (human influenza A type virus, H2N2 subtype, strain A/Kumamoto/1/65)
[5] = biological target: haemagglutinin (HA) of human influenza A type virus strain A/Adachi/2/57 (H2N2 subtype) (human influenza A type virus, H2N2 subtype, strain A/Adachi/2/57)
[6] = biological target: haemagglutinin (HA) of human influenza A type virus strain A/Suita/1/89 (H1N1 subtype) (human influenza A type virus, H1N1 subtype, strain A/Suita/1/89)
[7] = biological target: haemagglutinin (HA) of human influenza A type virus strain A/Kaizuka/2/65 (H2N2 subtype) (human influenza A type virus, H2N2 subtype, strain A/Kaizuka/2/65)
[8] = biological target: haemagglutinin (HA) of human influenza A type virus strain A/Suita/1/90 (H3N2 subtype) (human influenza A type virus, H3N2 subtype, strain A/Suita/1/90)
[9] = biological target: haemagglutinin (HA) of human influenza A type virus strain A/PR/8/34 (H1N1 subtype) (human influenza A type virus, H1N1 subtype, strain A/PR/8/34) (UniProt P03452); remark: listed apart in the source
[10] = biological target: haemagglutinin (HA) of human influenza A type virus strain A/Bangkok/10/83 (H1N1 subtype) (human influenza A type virus, H1N1 subtype, strain A/Bangkok/10/83)
[11] = biological target: haemagglutinin (HA) of human influenza A type virus strain A/Okuda/57 (H2N2 subtype) (human influenza A type virus, H2N2 subtype, strain A/Okuda/57); remark: listed apart in the source
[12] = biological target: haemagglutinin (HA) of human influenza A type virus strain A2/Aichi/2/68 (H3N2 subtype) (human influenza A type virus, H3N2 subtype, strain A2/Aichi/2/68) (UniProt P03437); remark: listed apart in the source
[13] = biological target: haemagglutinin (HA) of human influenza A type virus strain A/Izumi/5/65 (H2N2 subtype) (human influenza A type virus, H2N2 subtype, strain A/Izumi/5/65)
[14] = biological target: haemagglutinin (HA) of human influenza A type virus strain A/Osaka/930/88 (H1N1 subtype) (human influenza A type virus, H1N1 subtype, strain A/Osaka/930/88)
[15] = biological target: haemagglutinin (HA) of human influenza A type virus strain A/Sichuan/2/87 (H3N2 subtype) (human influenza A type virus, H3N2 subtype, strain A/Sichuan/2/87)
[16] = biological target: haemagglutinin (HA) of human influenza A type virus strain A/Yamagata/120/86 (H1N1 subtype) (human influenza A type virus, H1N1 subtype, strain A/Yamagata/120/86)
[17] = biological target: haemagglutinin (HA) of human influenza A type virus strain A/Fukuoka/C29/85 (H3N2 subtype) (human influenza A type virus, H3N2 subtype, strain A/Fukuoka/C29/85)
[18] = biological target: haemagglutinin (HA) of human influenza A type virus strain A1/FM/1/47 (H1N1 subtype) (human influenza A type virus, H1N1 subtype, strain A1/FM/1/47)
[19] = biological target: haemagglutinin (HA) of human influenza A type virus strain A/Kitakyushu/159/93 (H3N2 subtype) (human influenza A type virus, H3N2 subtype, strain A/Kitakyushu/159/93)
[20] = biological target: haemagglutinin (HA) of human influenza A type virus strain A/Ibaraki/1/90 (H3N2 subtype) (human influenza A type virus, H3N2 subtype, strain A/Ibaraki/1/90)
[21] = biological target: influenza B type virus strain B/Nagasaki/1/87 (influenza B type virus, strain B/Nagasaki/1/87)

Molecule: fused polypeptide of scFv of C179 with two Fc binding domain-like structures of protein A
- Absorbance at 492 nm (absorbance at 492 nm) [1]: 0.15
- Absorbance at 492 nm (absorbance at 492 nm) [2]: 0.303
- Absorbance at 492 nm (absorbance at 492 nm) [3]: 0.074

B1: monoclonal antibody C179 (antibody, V domains shown)
VH: EVKLVESGGGLVQPGGSLRLSCGTSGFTLTDDYMTWVRQPPGKALEWLGFIRDRANGYTTEYSASVKGRFTISRDNSQSIVYLQMNTLRVEDSATYYCARPKGYFPYAMDYWGQGT
VL: DIQMTQSPASQSASLGESVTITCLASQTIGTWLAWYQQKPGKSPQLLIYAATSLADGVPSRFSGSGSGTKFSFKISSLQAEDFVSYYCQQLYSTPWTF
- HI activity (haemagglutination inhibition, antibody titer) (dilution ratio of the ascites fluid) [4]: < 32
- Neutralization activity (focus reduction neutralization test, antibody titer) [4]: 1024
- Staining activity (antibody titer) [4]: 410000
- HI activity (haemagglutination inhibition, antibody titer) (dilution ratio of the ascites fluid) [5]: < 32
- Neutralization activity (focus reduction neutralization test, antibody titer) [5]: 1024
- Staining activity (antibody titer) [5]: 1.64e+06
- HI activity (haemagglutination inhibition, antibody titer) (dilution ratio of the ascites fluid) [6]: < 32
- Neutralization activity (focus reduction neutralization test, antibody titer) [6]: 1024
- Staining activity (antibody titer) [6]: 410000
- HI activity (haemagglutination inhibition, antibody titer) (dilution ratio of the ascites fluid) [7]: < 32
- Neutralization activity (focus reduction neutralization test, antibody titer) [7]: 2048
- Staining activity (antibody titer) [7]: 410000
- HI activity (haemagglutination inhibition, antibody titer) (dilution ratio of the ascites fluid) [8]: < 32
- Neutralization activity (focus reduction neutralization test, antibody titer) [8]: < 16
- Staining activity (antibody titer) [8]: < 100
- HI activity (haemagglutination inhibition, antibody titer) (dilution ratio of the ascites fluid) [9]: < 32
- Neutralization activity (focus reduction neutralization test, antibody titer) [9]: 512
- HI activity (haemagglutination inhibition, antibody titer) (dilution ratio of the ascites fluid) [10]: < 32
- Neutralization activity (focus reduction neutralization test, antibody titer) [10]: 512
- Staining activity (antibody titer) [10]: 1.64e+06
- HI activity (haemagglutination inhibition, antibody titer) (dilution ratio of the ascites fluid) [11]: < 32
- Neutralization activity (focus reduction neutralization test, antibody titer) [11]: 1024
- Staining activity (antibody titer) [11]: 1.64e+06
- HI activity (haemagglutination inhibition, antibody titer) (dilution ratio of the ascites fluid) [12]: < 32
- Neutralization activity (focus reduction neutralization test, antibody titer) [12]: < 16
- HI activity (haemagglutination inhibition, antibody titer) (dilution ratio of the ascites fluid) [13]: < 32
- Neutralization activity (focus reduction neutralization test, antibody titer) [13]: 1024
- Staining activity (antibody titer) [13]: 410000
- HI activity (haemagglutination inhibition, antibody titer) (dilution ratio of the ascites fluid) [14]: < 32
- Neutralization activity (focus reduction neutralization test, antibody titer) [14]: 512
- Staining activity (antibody titer) [14]: 410000
- HI activity (haemagglutination inhibition, antibody titer) (dilution ratio of the ascites fluid) [15]: < 32
- Neutralization activity (focus reduction neutralization test, antibody titer) [15]: < 16
- Staining activity (antibody titer) [15]: < 100
- HI activity (haemagglutination inhibition, antibody titer) (dilution ratio of the ascites fluid) [16]: < 32
- Neutralization activity (focus reduction neutralization test, antibody titer) [16]: 1024
- Staining activity (antibody titer) [16]: 410000
- HI activity (haemagglutination inhibition, antibody titer) (dilution ratio of the ascites fluid) [17]: < 32
- Neutralization activity (focus reduction neutralization test, antibody titer) [17]: < 16
- Staining activity (antibody titer) [17]: < 100
- HI activity (haemagglutination inhibition, antibody titer) (dilution ratio of the ascites fluid) [18]: < 32
- Neutralization activity (focus reduction neutralization test, antibody titer) [18]: 512
- Staining activity (antibody titer) [18]: 410000
- HI activity (haemagglutination inhibition, antibody titer) (dilution ratio of the ascites fluid) [19]: < 32
- Neutralization activity (focus reduction neutralization test, antibody titer) [19]: < 16
- Staining activity (antibody titer) [19]: < 100
- HI activity (haemagglutination inhibition, antibody titer) (dilution ratio of the ascites fluid) [20]: < 32
- Neutralization activity (focus reduction neutralization test, antibody titer) [20]: < 16
- Staining activity (antibody titer) [20]: < 100
- HI activity (haemagglutination inhibition, antibody titer) (dilution ratio of the ascites fluid) [21]: < 32
- Neutralization activity (focus reduction neutralization test, antibody titer) [21]: < 16
- Staining activity (antibody titer) [21]: < 100
